The record followed here is publication PMC12203913, “XPC-RAD23B enhances UV-DDB binding to DNA to facilitate lesion search in nucleotide excision repair” (Nucleic Acids Research, 2025).

Data set [1] addresses T1, UV-DDB (DDB1-DDB2);XPC-RAD23B (Homo sapiens;Homo sapiens, UniProt Q16531;Q92466;Q01831;P54727 1-1140;1-427;1-940;1-409, |). As to the kind of experiment: single-molecule DNA curtain. As to conditions: 0.2 nM UV-DDB, 0.4 nM XPC-RAD23B, 3-fold more at CPD sites than random sites, three CPDs around 33.5 kbp (33513-33630), EMSA: 50 mM Tris-HCl pH 7.5, 100 mM NaCl, 0.1 mg/ml BSA, 1 mM DTT, 23°C, 45 min, DNA curtains: 10 mM Tris-HCl pH 8.0, 1 mM EDTA, 0.16% BSA, 0-100 mM ….

Data set [2] concerns the target UV-DDB (heterodimer of DDB1 and DDB2) (human, UniProt Q16531 1-1140; Q92466 1-427). In words: cell-based or functional assay.
Data set [3] concerns the target T1, UV-DDB (DDB1-DDB2);XPC-RAD23B. As to the kind of experiment: EMSA; 15 nM XPC-RAD23B, UV-DDB titrated, 10 nM DNA; co-bound band confirmed by native western; EMSA: 50 mM Tris-HCl pH 7.5, 100 mM NaCl, 0.1 mg/ml BSA, 1 mM DTT, 23°C, 45 min; DNA curtains: 10 mM Tris-HCl pH 8.0, 1 mM EDTA, 0.16% BSA, 1 mM DTT, 0-100 mM NaCl, 23°C. As to conditions: protein: recombinant;recombinant; tags: 3xHA at N-terminus of DDB1 (1xFLAG removed by PreScission);3xFLAG at N-terminus of XPC; copies: 1;1;1;1; label: 5'-FAM on strand 2; blunt; T21 of strand 1 faces T of strand 2 (T-T mismatch at the CPD).

The target of a further data set is XPC-RAD23B (Homo sapiens, UniProt Q01831;P54727 1-940;1-409). In words: EMSA; 4 nM DNA, no competitor; EMSA: 50 mM Tris-HCl pH 7.5, 100 mM NaCl, 0.1 mg/ml BSA, 1 mM DTT, 23°C, 45 min; DNA curtains: 10 mM Tris-HCl pH 8.0, 1 mM EDTA, 0.16% BSA, 1 mM DTT, 0-100 mM NaCl, 23°C. As to conditions: protein: recombinant, tags: 3xFLAG at N-terminus of XPC, copies: 1;1, label: 5'-FAM on strand 2, blunt.

A further data set addresses UV-DDB (DDB1-DDB2) (Homo sapiens, UniProt Q16531;Q92466 1-1140;1-427). The data set is described as above. The following applies: protein: recombinant, tags: 3xHA at N-terminus of DDB1 (1xFLAG removed by PreScission), copies: 1;1, label: 5'-FAM on strand 2, blunt.
In data set [4] the target is T1, UV-DDB (DDB1-DDB2);XPC-RAD23B. As to the kind of experiment: EMSA; 2 nM XPC-RAD23B, UV-DDB titrated, 10 nM DNA; EMSA: 50 mM Tris-HCl pH 7.5, 100 mM NaCl, 0.1 mg/ml BSA, 1 mM DTT, 23°C, 45 min; DNA curtains: 10 mM Tris-HCl pH 8.0, 1 mM EDTA, 0.16% BSA, 1 mM DTT, 0-100 mM NaCl, 23°C. The following applies: protein: recombinant;recombinant; tags: 3xHA at N-terminus of DDB1 (1xFLAG removed by PreScission);3xFLAG at N-terminus of XPC; copies: 1;1;1;1; label: 5'-FAM on strand 2; blunt; T21 of strand 1 faces T of strand 2 (T-T mismatch at the CPD).

The target is the same in data set [5]. As to the kind of experiment: EMSA; 2 nM XPC-RAD23B increases UV-DDB binding; EMSA: 50 mM Tris-HCl pH 7.5, 100 mM NaCl, 0.1 mg/ml BSA, 1 mM DTT, 23°C, 45 min; DNA curtains: 10 mM Tris-HCl pH 8.0, 1 mM EDTA, 0.16% BSA, 1 mM DTT, 0-100 mM NaCl, 23°C. The following applies: protein: recombinant;recombinant; tags: 3xHA at N-terminus of DDB1 (1xFLAG removed by PreScission);3xFLAG at N-terminus of XPC; copies: 1;1;1;1; label: 5'-FAM on strand 2; blunt.

[6] abbreviates: T21 of strand 1 faces T of strand 2 (T-T mismatch at the CPD).

T1 sequence (Q16531 whole entry, chain 1 of 2): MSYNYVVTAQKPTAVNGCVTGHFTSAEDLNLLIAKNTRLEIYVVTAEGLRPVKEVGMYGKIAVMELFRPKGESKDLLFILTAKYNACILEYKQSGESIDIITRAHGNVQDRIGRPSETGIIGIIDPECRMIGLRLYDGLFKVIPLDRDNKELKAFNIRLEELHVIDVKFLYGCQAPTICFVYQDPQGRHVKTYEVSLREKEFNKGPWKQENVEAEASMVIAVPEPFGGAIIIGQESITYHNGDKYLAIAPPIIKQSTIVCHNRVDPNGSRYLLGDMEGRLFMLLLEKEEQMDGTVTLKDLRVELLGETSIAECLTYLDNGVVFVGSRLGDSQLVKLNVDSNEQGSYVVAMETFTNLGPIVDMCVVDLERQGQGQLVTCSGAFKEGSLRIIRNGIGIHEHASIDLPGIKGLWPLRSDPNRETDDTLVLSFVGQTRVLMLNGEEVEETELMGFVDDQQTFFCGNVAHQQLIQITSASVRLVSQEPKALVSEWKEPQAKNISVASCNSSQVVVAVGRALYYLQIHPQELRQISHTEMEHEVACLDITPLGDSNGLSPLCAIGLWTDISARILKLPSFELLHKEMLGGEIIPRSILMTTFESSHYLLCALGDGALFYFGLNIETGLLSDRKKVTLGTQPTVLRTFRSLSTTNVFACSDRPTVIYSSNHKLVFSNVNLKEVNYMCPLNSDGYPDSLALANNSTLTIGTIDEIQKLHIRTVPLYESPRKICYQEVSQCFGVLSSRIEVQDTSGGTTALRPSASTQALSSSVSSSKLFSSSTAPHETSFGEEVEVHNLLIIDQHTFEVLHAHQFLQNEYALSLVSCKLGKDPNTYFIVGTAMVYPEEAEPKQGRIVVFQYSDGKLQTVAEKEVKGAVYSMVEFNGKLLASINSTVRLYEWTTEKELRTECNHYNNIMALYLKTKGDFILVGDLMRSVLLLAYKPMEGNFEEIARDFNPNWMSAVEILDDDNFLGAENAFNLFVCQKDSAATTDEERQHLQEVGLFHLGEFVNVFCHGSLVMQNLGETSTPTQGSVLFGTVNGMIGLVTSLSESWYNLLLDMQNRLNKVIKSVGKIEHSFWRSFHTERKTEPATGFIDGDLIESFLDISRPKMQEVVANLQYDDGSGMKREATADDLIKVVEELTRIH
T1 sequence (Q92466 whole entry, chain 2 of 2): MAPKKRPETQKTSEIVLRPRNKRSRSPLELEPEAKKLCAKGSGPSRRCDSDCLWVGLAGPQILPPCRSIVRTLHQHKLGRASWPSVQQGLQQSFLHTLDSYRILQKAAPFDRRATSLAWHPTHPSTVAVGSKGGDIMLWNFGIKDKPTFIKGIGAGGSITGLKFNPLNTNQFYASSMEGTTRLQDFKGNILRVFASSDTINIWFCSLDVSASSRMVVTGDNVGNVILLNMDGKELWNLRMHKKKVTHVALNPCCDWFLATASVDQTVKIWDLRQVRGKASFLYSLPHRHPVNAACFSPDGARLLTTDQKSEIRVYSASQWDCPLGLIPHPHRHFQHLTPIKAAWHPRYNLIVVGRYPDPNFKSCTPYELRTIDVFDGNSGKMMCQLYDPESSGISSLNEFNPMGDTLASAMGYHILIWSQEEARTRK
Chain of UV-DDB (DDB1-DDB2) (Q16531 whole entry, chain 1 of 2): as the sequence (Q16531 whole entry, chain 1 of 2) above
Chain of UV-DDB (DDB1-DDB2) (Q92466 whole entry, chain 2 of 2): as the sequence (Q92466 whole entry, chain 2 of 2) above
Chain of UV-DDB (heterodimer of DDB1 and DDB2) (Q16531 whole entry, chain 1 of 2): as the sequence (Q16531 whole entry, chain 1 of 2) above
Chain of UV-DDB (heterodimer of DDB1 and DDB2) (Q92466 whole entry, chain 2 of 2): as the sequence (Q92466 whole entry, chain 2 of 2) above

Consider 3x CPD λ-DNA (λ-I3), for which the binding signal (fold bound UV-DDB vs no XPC-RAD23B) in data set [1] is 5.5.

B1: XPC-RAD23B (complex, human)
chain 1: MARKRAAGGEPRGRELRSQKSKAKSKARREEEEEDAFEDEKPPKKSLLSKVSQGKRKRGCSHPGGSADGPAKKKVAKVTVKSENLKVIKDEALSDGDDLRDFPSDLKKAHHLKRGATMNEDSNEEEEESENDWEEVEELSEPVLGDVRESTAFSRSLLPVKPVEIEIETPEQAKTRERSEKIKLEFETYLRRAMKRFNKGVHEDTHKVHLLCLLANGFYRNNICSQPDLHAIGLSIIPARFTRVLPRDVDTYYLSNLVKWFIGTFTVNAELSASEQDNLQTTLERRFAIYSARDDEELVHIFLLILRALQLLTRLVLSLQPIPLKSATAKGKKPSKERLTADPGGSSETSSQVLENHTKPKTSKGTKQEETFAKGTCRPSAKGKRNKGGRKKRSKPSSSEEDEGPGDKQEKATQRRPHGRERRVASRVSYKEESGSDEAGSGSDFELSSGEASDPSDEDSEPGPPKQRKAPAPQRTKAGSKSASRTHRGSHRKDPSLPAASSSSSSSKRGKKMCSDGEKAEKRSIAGIDQWLEVFCEQEEKWVCVDCVHGVVGQPLTCYKYATKPMTYVVGIDSDGWVRDVTQRYDPVWMTVTRKCRVDAEWWAETLRPYQSPFMDREKKEDLEFQAKHMDQPLPTAIGLYKNHPLYALKRHLLKYEAIYPETAAILGYCRGEAVYSRDCVHTLHSRDTWLKKARVVRLGEVPYKMVKGFSNRARKARLAEPQLREENDLGLFGYWQTEEYQPPVAVDGKVPRNEFGNVYLFLPSMMPIGCVQLNLPNLHRVARKLDIDCVQAITGFDFHGGYSHPVTDGYIVCEEFKDVLLTAWENEQAVIERKEKEKKEKRALGNWKLLAKGLLIRERLKRRYGPKSEAAAPHTDAGGGLSSDEEEGTSSQAEAARILAASWPQNREDEEKQKLKGGPKKTKREKKAAASHLFPFEQL
chain 2: MQVTLKTLQQQTFKIDIDPEETVKALKEKIESEKGKDAFPVAGQKLIYAGKILNDDTALKEYKIDEKNFVVVMVTKPKAVSTPAPATTQQSAPASTTAVTSSTTTTVAQAPTPVPALAPTSTPASITPASATASSEPAPASAAKQEKPAEKPAETPVATSPTATDSTSGDSSRSNLFEDATSALVTGQSYENMVTEIMSMGYEREQVIAALRASFNNPDRAVEYLLMGIPGDRESQAVVDPPQAASTGAPQSSAVAAAAATTTATTTTTSSGGHPLEFLRNQPQFQQMRQIIQQNPSLLPALLQQIGRENPQLLQQISQHQEHFIQMLNEPVQEAGGQGGGGGGGSGGIAEAGSGHMNYIQVTPQEKEAIERLKALGFPEGLVIQAYFACEKNENLAANFLLQQNFDED
For B1, the “EMSA: binding of UV-DDB (0-25 nM) to DNA with 15 nM XPC-RAD23B against none” value in data set [2] is ~4 fold.

B2: CPD-containing 39 bp DNA (λ-I3_CPD / λ-I3_comp_FAM) (dsDNA)
DNA 1: TGCATGCGGCCGCTCTTCCCTTGGTGCGATCGCTCTTCG
DNA 2: CGAAGAGCGATCGCACCATGGGAAGAGCGGCCGCATGCA
modifications: cyclobutane pyrimidine dimer T21^T22 in strand 1; 5'-phosphate on strand 1
Take B2: the binding signal in data set [3] is ~4 fold UV-DDB binding vs no XPC-RAD23B; in data set [4], 2.5 fold UV-DDB affinity vs no XPC-RAD23B. The dissociation constant Kd with XPC-RAD23B (setting [6]) is ~7 nM; with UV-DDB (DDB1-DDB2) (setting [6]) it was ~5 nM.

B3: undamaged 39 bp DNA (λ-I3_Dup / λ-I3_comp_FAM) (dsDNA)
DNA 1: TGCATGCGGCCGCTCTTCCCATGGTGCGATCGCTCTTCG
DNA 2: CGAAGAGCGATCGCACCATGGGAAGAGCGGCCGCATGCA
modifications: 5'-phosphate on strand 1
B3: in data set [5], the binding result is on record as “binds”. Also, the dissociation constant (Kd) with XPC-RAD23B was ~9 nM; with UV-DDB (DDB1-DDB2), ~26 nM.
